Here are results for two substances from PMC7538681.

For assay [1], the target named is Sinorhizobium meliloti glutaredoxin 2 (SmGrx2), untagged (Sinorhizobium meliloti (strain Sm2011)). The experiment in a line: ITC; SmGrx2 (50 µM, in the cell) titrated with SmYrbA (800 µM), 30 mM phosphate buffer pH 8.0, 20°C, one-set-of-sites model, duplicate.
For assay [2], the target named is N-terminal His-tagged SmYrbA (Sinorhizobium meliloti (strain Sm2011)). The experiment in a line: switchSENSE; His-tagged SmYrbA held on Ni-NTA3-tagged 48mer DNA nanolevers on the chip; SmGrx2 injected at 25, 50 and 100 µM; 10 mM potassium phosphate pH 7.4, 2 mM MgCl2; 25°C; switching dynamic mode; single-exponential fits; Kd = koff/kon.
N-terminal His-tagged SmYrbA (Sinorhizobium meliloti (strain Sm2011)), sequence (main, as listed by the source): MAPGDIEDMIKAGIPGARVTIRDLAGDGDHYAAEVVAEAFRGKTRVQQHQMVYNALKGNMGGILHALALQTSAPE

By Kd is commonly meant the equilibrium constant for the complex coming apart. A low value points to tighter binding. As a reminder, the stoichiometry N is the number of molecules, sites or subunits per partner or assembly. For “Sinorhizobium meliloti YrbA (SmYrbA), untagged (natural protein)”, in assay [1], the Kd was found to be 6.8 µM, the dH was -2.9 kcal/mol and the stoichiometry N is 1.27.
As usually defined, the koff is the rate constant with which the complex falls apart. Read a low koff as slow dissociation. Broadly, the kon is the rate constant with which the complex forms. In assay [2], “Sinorhizobium meliloti glutaredoxin 2 (SmGrx2), untagged (natural protein)” showed a Kd of 5.6 µM, a dissociation halftime of 50 s, a koff of 0.014 s⁻¹ and an on-rate (kon) of 2410 M⁻¹ s⁻¹.
